In test [1] the target is T1, CD47 (UniProt Q08722 19-323, limits assumed).
T1 construct: whole, on cells; The assay used a labelled whole membrane preparation from Jurkat or MEC-1 cells, not purified CD47; also called CD47 receptor
The test can be described thus: Microscale thermophoresis (MST); NT-647-labelled Jurkat or MEC-1 cell membrane preparation held constant, peptide titrated; linear peptide PKT16, FIG. 5. Here is the method:
(§1) Jurkat or Mec-1 cell membrane preparations are labeled using the Nanotemper NT-647 labeling kit as described elsewhere.xliv The labeled preparation is eluted with PBS and stored at 4° C. A stock solution of each peptide is prepared in DMSO (5 mM) and then diluted with PBS. For the peptides evaluated by MST, we have kept the concentration of the NT.115-labeled membrane constant, while the concentration of the ligand (peptide) was varied. After a short incubation the samples were loaded into MST premium glass capillaries and the MST analysis was performed using the Monolith NT.115-pico. […]
(§2) Binding affinity measurements. The binding affinities of peptides, here PKT16, PKTD1, PKTD10, PKTD10-1, PKTD10-3, PKTD10-5, PKDT10-7 and PKTD10-8 for a membrane preparation from Jurkat and/or MEC-1 cells were measured by Microscale Thermophoresis ^xlv on a Monolith NT115-pico system (Nanotemper Technologies, Munich, Germany).
(§3) Binding curve measured by MST. […] A local temperature difference ΔT leads to a local change in molecule concentration (depletion or enrichment), quantified by the Soret coefficient ST: cₕₒₜ/ccold=exP(−STΔT). […] For the peptides evaluated by MST, we have kept the concentration of the NT.115-labeled membrane constant, while the concentration of the ligand (peptide) was varied.
On the technique in general: In MST a laser heats a spot of the sample, and binding alters the fluorescence response.

Test [2] has as its target T1, CD47. In words: Microscale thermophoresis (MST); NT-647-labelled Jurkat or MEC-1 cell membrane preparation held constant, peptide titrated; cyclic peptide PKTD10, FIG. 6. How it is done: as §1, §2, §3
Test [3] addresses T1, CD47. In words: Microscale thermophoresis (MST); NT-647-labelled Jurkat or MEC-1 cell membrane preparation held constant, peptide titrated; cyclic peptide PKTD1, FIG. 6. How it is done:
as §1, §2, §3

Drawing on patent publication US20190135865A1 (SORBONNE UNIVERSITE, published 2019), this text covers Kd for three molecules.

Non-standard residues stand in square brackets, D forms with d. No end group written: not given here. NMeR = CN[C@@H](CCCNC(=N)N)C(=O)O; Nle = CCCC[C@H](N)C(=O)O

The term Kd denotes the equilibrium constant for the complex coming apart.

T1 sequence (Q08722 19-323 limits assumed): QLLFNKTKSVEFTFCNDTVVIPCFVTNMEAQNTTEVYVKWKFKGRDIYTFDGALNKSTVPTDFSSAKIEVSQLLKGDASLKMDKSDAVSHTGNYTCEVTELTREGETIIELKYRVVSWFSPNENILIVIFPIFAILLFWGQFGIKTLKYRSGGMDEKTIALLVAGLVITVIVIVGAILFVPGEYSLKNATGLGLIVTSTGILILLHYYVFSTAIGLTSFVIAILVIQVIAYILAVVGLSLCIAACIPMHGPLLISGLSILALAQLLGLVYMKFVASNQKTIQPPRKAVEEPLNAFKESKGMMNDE

In test [1], [dK][NMeR]FYVV[Nle]WK[dK] (also called linear PKT16 peptide) [PKT16 [(D)Lys-(N-Me)Arg-Phe-Tyr-Val-Val-Nle-Trp-Lys-(D)Lys]] registered a Kd of 1600 nM.

B1: PKTD10 (peptide)
peptide: SRFYVVMWKPPGLSVKVVNS
HELM: PEPTIDE1{S.R.F.Y.V.V.M.W.K.[dP].P.G.L.S.V.K.V.V.N.S}$PEPTIDE1,PEPTIDE1,1:R1-20:R2$$$V2.0
SMILES: CSCC[C@@H]1NC(=O)[C@H](C(C)C)NC(=O)[C@H](C(C)C)NC(=O)[C@H](Cc2ccc(O)cc2)NC(=O)[C@H](Cc2ccccc2)NC(=O)[C@H](CCCNC(=N)N)NC(=O)[C@H](CO)NC(=O)[C@H](CO)NC(=O)[C@H](CC(N)=O)NC(=O)[C@H](C(C)C)NC(=O)[C@H](C(C)C)NC(=O)[C@H](CCCCN)NC(=O)[C@H](C(C)C)NC(=O)[C@H](CO)NC(=O)[C@H](CC(C)C)NC(=O)CNC(=O)[C@@H]2CCCN2C(=O)[C@H]2CCCN2C(=O)[C@H](CCCCN)NC(=O)[C@H](Cc2c[nH]c3ccccc23)NC1=O
notes: Cyclic peptide, linear representation -S-R-F-Y-V-V-M-W-K-p-P-G-L-S-V-K-V-V-N-S-
Regarding B1, the Kd in test [2] turned out to be 49 nM. That is a double-digit nanomolar value.

B2: PKTD1 (peptide)
peptide: SRFYVVMWKPPGISVKVVKS
HELM: PEPTIDE1{S.R.F.Y.V.V.M.W.K.[dP].P.G.I.S.V.K.V.V.K.S}$PEPTIDE1,PEPTIDE1,1:R1-20:R2$$$V2.0
SMILES: CC[C@H](C)[C@@H]1NC(=O)CNC(=O)[C@@H]2CCCN2C(=O)[C@H]2CCCN2C(=O)[C@H](CCCCN)NC(=O)[C@H](Cc2c[nH]c3ccccc23)NC(=O)[C@H](CCSC)NC(=O)[C@H](C(C)C)NC(=O)[C@H](C(C)C)NC(=O)[C@H](Cc2ccc(O)cc2)NC(=O)[C@H](Cc2ccccc2)NC(=O)[C@H](CCCNC(=N)N)NC(=O)[C@H](CO)NC(=O)[C@H](CO)NC(=O)[C@H](CCCCN)NC(=O)[C@H](C(C)C)NC(=O)[C@H](C(C)C)NC(=O)[C@H](CCCCN)NC(=O)[C@H](C(C)C)NC(=O)[C@H](CO)NC1=O
notes: Cyclic peptide, linear representation -S-R-F-Y-V-V-M-W-K-p-P-G-I-S-V-K-V-V-K-S-
In the case of B2, in test [3], binding was put at a Kd of 1.9 nM.
